The values below come from US7026443.

Experiment [1] deals with HLA-A*0301 (human). Kind of experiment: competition with 125I-labelled standard probe peptide for purified HLA-A*0301, gel filtration. Background: Size exclusion chromatography separates by hydrodynamic size, large species first.
For experiment [2], the target named is HLA-A*0301 (human). Briefly: competition with 125I-labeled standard probe peptide for purified HLA-A*0301, gel filtration.
Another experiment concerns the target HLA-A*3101 (human). Briefly: competition with 125I-labelled standard peptide for purified HLA, gel filtration.
For another experiment, the target named is HLA-A*6801 (human). The description is as above.
The target in experiment [3] is HLA-A*1101 (human). The description is as above.
The target in another experiment is HLA-A*3301 (human). Described as above.
For experiment [4], the target named is HLA-A*0301 (human). Described as above.
Experiment [5] has as its target HLA-A*0201 (human). Briefly: competition with 125I-labeled standard probe peptide for purified HLA-A*0201, gel filtration.
In experiment [6] the target is HLA-A*1101 (human). Briefly: competition with 125I-labeled standard peptide for purified HLA, gel filtration.
Experiment [7] concerns the target HLA-A*0301 (human). Described as above.
For experiment [8], the target named is HLA-A*0201 (human). Kind of experiment: competition against 125I-labelled standard peptide on purified HLA-A*0201, gel filtration.
The target in experiment [9] is HLA-A*0301 (human). Kind of experiment: competition with a 125I-labelled standard peptide for purified HLA-A*0301, bound and free separated by gel filtration.
The target in experiment [10] is HLA-A*0201 (human). Kind of experiment: competition with 125I-labelled standard peptide for purified HLA, gel filtration.
The target of experiment [11] is HLA-A*1101 (human). Kind of experiment: inhibition of 125I-labeled standard peptide binding to purified HLA-A*1101, gel filtration.
The target in experiment [12] is HLA-A*0301 (human). Kind of experiment: competition with 125I-labelled standard peptide for purified HLA-A*0301, gel filtration.
Experiment [13] has as its target HLA-A*1101 (human). Briefly: competition with 125I-labeled standard probe peptide for purified HLA-A*1101, gel filtration.
Experiment [14] addresses HLA-A*1101 (human). Briefly: competition with 125I-labeled standard peptide for purified HLA-A*1101, gel filtration.
Experiment [15] addresses HLA-A*0301 (human).
Experiment [16] concerns the target HLA-A*1101 (human).

Like-named read-outs stand apart in the source and are kept apart here.

EGTGCNGWFY (modifications not checked) [HPV16 E1 peptide … (position 11, 10 amino acids)]: the binding affinity ratio relative to the standard peptide (IC50 standard / IC50 test) with HLA-A*0301 (human) [1] was 0.0005.
In the case of EGTGCNGWF (modifications not checked) [HPV16 E1 peptide … (position 11, 9 amino acids)], the binding affinity ratio relative to the standard peptide (IC50 standard / IC50 test) in the experiment with HLA-A*0301 (human) [1] amounted to 0.0008.
Take WLQPLADAK (modifications not checked) [HPV31 E1 489 peptide … (SEQ ID NO: 34685)]: in the experiment with HLA-A*0301 (human) [2], the relative binding ratio (IC50 of standard peptide / IC50 of test peptide) was found to be 0.0005.
On to LIRCINCQK (modifications not checked), for which the binding affinity ratio (IC50 of standard peptide / IC50 of test peptide) with HLA-A*3101 (human) is 0.0012; with HLA-A*6801 (human), 0.0021; with HLA-A*1101 (human) [3], 0.0009; in the experiment with HLA-A*3301 (human), 0.0041; in the experiment with HLA-A*0301 (human) [4], 0.0025.
As to STLRLCVQST (modifications not checked) [HPV31 E7 peptide … (position 63, 10 amino acids)], the relative binding ratio (IC50 of standard peptide / IC50 of test peptide) with HLA-A*0201 (human) [5] was determined as 0.0012.
Turning to GTGCNGWFYV (modifications not checked) [HPV31 E1 peptide … (position 11, 10 amino acids)], the relative binding ratio (IC50 of standard peptide / IC50 of test peptide) (ratio to standard peptide) with HLA-A*0201 (human) [5] turned out to be 0.0006.
NVLKTSNAK (modifications not checked) [HPV16 E1 peptide … (position 196, 9 amino acids)]: the relative binding ratio (IC50 of standard peptide / IC50 of test peptide) is 0.0015 with HLA-A*1101 (human) [6] and 0.0005 in the experiment with HLA-A*0301 (human) [7]. Also, in the experiment with HLA-A*0301 (human) [2], the binding affinity ratio (IC50 of the standard peptide / IC50 of the test peptide) came to 0.0005.
For the molecule KLLSKLLCV (modifications not checked) [HPV16 E1 292 …], the relative binding ratio (IC50 of standard peptide / IC50 of test peptide) with HLA-A*0201 (human) [8] was found to be 0.051.
On to LACSWGMVV (modifications not checked) [HPV16 E1 267 …], for which the relative binding ratio (IC50 of standard peptide / IC50 of test peptide) with HLA-A*0201 (human) [8] amounted to 0.0006.
Turning to EGTGCNGWFY (modifications not checked) [HPV18 E1 peptide … (position 10, 10 amino acids)], the relative binding ratio (IC50 of standard peptide / IC50 of test peptide) (ratio to standard peptide) with HLA-A*0301 (human) [9] was found to be 0.0005.
With EGTGCNGWF (modifications not checked) [HPV45 E1 peptide … (position 10, 9 amino acids)], the binding affinity ratio (IC50 of standard peptide / IC50 of test peptide) (ratio to standard peptide) in the experiment with HLA-A*0301 (human) [1] was 0.0008.
In the case of ILLTTNIHPA (modifications not checked) [HPV18 E1 569 peptide …], the binding affinity ratio (IC50 of standard peptide / IC50 of test peptide) with HLA-A*0201 (human) [10] worked out at 0.08.
On to QPPKLRSSV (modifications not checked), for which the figures for the binding affinity ratio (IC50 of standard peptide / IC50 of test peptide) in the experiment with HLA-B*3501 (human), with HLA-B*5101 (human) and in the experiment with HLA-B*5301 (human) were 0.0003, 0.0002 and 0.0002, respectively.
Turning to GDTPEWIQR (modifications not checked) [HPV16 E1 334 …], in the experiment with HLA-A*1101 (human) [11], the relative binding ratio (IC50 of standard peptide / IC50 of test peptide) was 0.0002. For the same molecule, the binding affinity ratio (IC50 of standard peptide / IC50 of test peptide) (ratio to standard peptide) in the experiment with HLA-A*0301 (human) [12] worked out at 0.0008.
With TLRLCVQST (modifications not checked) [HPV31 E7 peptide … (position 64, 9 amino acids)], the relative binding ratio (IC50 of standard peptide / IC50 of test peptide) with HLA-A*0201 (human) [5] worked out at 0.0061.
In the case of QPPKLRSSVA (modifications not checked), the binding affinity ratio (IC50 of standard peptide / IC50 of test peptide) amounted to 0.0003 in the experiment with HLA-B*3501 (human), 0.039 with HLA-B*5401 (human), 0.0002 with HLA-B*5101 (human) and 0.0002 in the experiment with HLA-B*5301 (human).
For the molecule LLITSNINA (modifications not checked) [HPV16 E1 562 …], in the experiment with HLA-A*0201 (human) [8], the relative binding ratio (IC50 of standard peptide / IC50 of test peptide) is 0.0022.
Turning to EGTGCNGWF (modifications not checked) [HPV18 E1 peptide … (position 10, 9 amino acids)], the relative binding ratio (IC50 of standard peptide / IC50 of test peptide) (ratio to standard peptide) in the experiment with HLA-A*0301 (human) [9] came out at 0.0008.
Take LLCVSPMCM (modifications not checked) [HPV16 E1 297 …]: the relative binding ratio (IC50 of standard peptide / IC50 of test peptide) with HLA-A*0201 (human) [8] came out at 0.0008.
In the case of ILYAHIQCL (modifications not checked) [HPV18 E1 266 peptide …], in the experiment with HLA-A*0201 (human) [10] (remark: other sources report otherwise), the binding affinity ratio (IC50 of standard peptide / IC50 of test peptide) was found to be 0.081.
For GVLILALLR (modifications not checked) [HPV45 E1 265 … (SEQ ID NO: 43630)], the relative binding ratio (IC50 of standard peptide / IC50 of test peptide) with HLA-A*1101 (human) [13] came out at 0.14.
On to WPYLESRITV (modifications not checked) [HPV18 E1 583 peptide …], for which the binding affinity ratio (IC50 of standard peptide / IC50 of test peptide) with HLA-B*3501 (human) turned out to be 0.0066; in the experiment with HLA-B*5401 (human), 0.024; in the experiment with HLA-B*5101 (human), 0.055; with HLA-B*5301 (human), 0.014; with HLA-B*0702 (human) it was 0.0067.
With IHDIILECVY (modifications not checked) [… (HPV16 E6, position 30, 10 amino acids)], in the experiment with HLA-A*0101 (human), the relative binding ratio (IC50 of standard peptide / IC50 of test peptide) is 0.028.
For LILALLRYK (modifications not checked) [HPV45 E1 267 peptide … (SEQ ID NO: 43681)], the relative binding ratio (IC50 of standard peptide / IC50 of test peptide) in the experiment with HLA-A*1101 (human) [14] was found to be 0.18.
As for DCATMCRHY (modifications not checked) [HPV16 E1 peptide … (position 404, 9 amino acids)], the relative binding ratio (IC50 of standard peptide / IC50 of test peptide) (ratio to standard peptide) in the experiment with HLA-A*0101 (human) turned out to be 0.0011; with HLA-A*0301 (human) [15], 0.0001.
As for NAKAAMLAK (modifications not checked) [HPV16 E1 peptide … (position 202, 9 amino acids)], the values for the relative binding ratio (IC50 of standard peptide / IC50 of test peptide) in the experiment with HLA-A*1101 (human) [6] and with HLA-A*0301 (human) [7] were 0.0031 and 0.0005, respectively. Moreover, in the experiment with HLA-A*0301 (human) [2], the binding affinity ratio (IC50 of the standard peptide / IC50 of the test peptide) was 0.0005.
For YAVCDKCLK (modifications not checked), the binding affinity ratio (IC50 of standard peptide / IC50 of test peptide) with HLA-A*3101 (human) is 0.0015; in the experiment with HLA-A*6801 (human), 0.012; in the experiment with HLA-A*1101 (human) [3] it was 0.001; with HLA-A*0301 (human) [4], 0.0003.
For QPFILYAHI (modifications not checked) [HPV18 E1 263 peptide …], the binding affinity ratio (IC50 of standard peptide / IC50 of test peptide) was 0.0003 with HLA-B*3501 (human); 0.0034 in the experiment with HLA-B*5401 (human); 0.21 with HLA-B*5101 (human); 0.0017 in the experiment with HLA-B*5301 (human); 0.0002 with HLA-B*0702 (human).
Consider LSFVCPWCA (modifications not checked) [HPV45 E7 peptide … (position 95, 9 amino acids)], for which the relative binding ratio (IC50 of the standard peptide / IC50 of the test peptide) with HLA-A*0301 (human) [9] is 0.0005.
For CMSCCRSSR (modifications not checked), the binding affinity ratio (IC50 of standard peptide / IC50 of test peptide) was 0.082 with HLA-A*3101 (human); 0.0011 with HLA-A*6801 (human); 0.0001 in the experiment with HLA-A*1101 (human) [3]; 0.12 with HLA-A*3301 (human); 0.0033 with HLA-A*0301 (human) [4].
Consider WLQPLADAK (modifications not checked) [HPV31 E1 489 peptide … (SEQ ID NO: 41921)], for which the relative binding ratio (IC50 of standard peptide / IC50 of test peptide) with HLA-A*1101 (human) [13] is 0.0002.
Take NINAGTDSR (modifications not checked) [HPV16 E1 peptide … (position 567, 9 amino acids)]: the relative binding ratio (IC50 of standard peptide / IC50 of test peptide) with HLA-A*1101 (human) [6] amounted to 0.0002; with HLA-A*0301 (human) [7] it was 0.0005. Also, in the experiment with HLA-A*0301 (human) [2], the binding affinity ratio (IC50 of the standard peptide / IC50 of the test peptide) was found to be 0.0005.
With IAEGFKTLI (modifications not checked) [HPV18 E1 254 peptide …], the binding affinity ratio (IC50 of standard peptide / IC50 of test peptide) in the experiment with HLA-A*0201 (human) [10] worked out at 0.0003.
Consider KISEYRHYCY (modifications not checked) [… (HPV16 E6, position 79, 10 amino acids)], for which the relative binding ratio (IC50 of standard peptide / IC50 of test peptide) with HLA-A*0101 (human) is 0.009. Moreover, the binding affinity ratio (IC50 of standard peptide / IC50 of test peptide) (ratio to standard peptide) in the experiment with HLA-A*1101 (human) [16] came to 0.0038.
Turning to GDTPEWIQR (modifications not checked) [HPV45 E1 327 … (SEQ ID NO: 43619)], in the experiment with HLA-A*1101 (human) [13], the relative binding ratio (IC50 of standard peptide / IC50 of test peptide) is 0.0002.
